Experimental data reported in paper PMC3928670.
pKd: −log10 of the molar value.

Assays:
[1] = molecular target: BcerB, TOMM dehydrogenase (B-protein) from Bacillus cereus 172560W (Bacillus cereus 172560W); experiment: fluorescence polarisation
[2] = molecular target: McbB/D (Escherichia coli) (UniProt P23184); conditions: cited from earlier work
Chain of UniProt P23184 (P23184 whole entry, chain 1 of 2): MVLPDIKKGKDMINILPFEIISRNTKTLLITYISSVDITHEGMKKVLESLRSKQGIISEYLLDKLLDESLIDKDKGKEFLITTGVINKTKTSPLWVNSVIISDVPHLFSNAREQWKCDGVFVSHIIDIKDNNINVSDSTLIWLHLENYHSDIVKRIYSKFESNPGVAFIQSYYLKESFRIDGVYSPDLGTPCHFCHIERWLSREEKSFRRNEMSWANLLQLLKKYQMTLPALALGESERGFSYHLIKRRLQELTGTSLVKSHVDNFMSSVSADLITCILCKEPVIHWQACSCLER
Chain of UniProt P23184 (P23186 whole entry, chain 2 of 2, further chain): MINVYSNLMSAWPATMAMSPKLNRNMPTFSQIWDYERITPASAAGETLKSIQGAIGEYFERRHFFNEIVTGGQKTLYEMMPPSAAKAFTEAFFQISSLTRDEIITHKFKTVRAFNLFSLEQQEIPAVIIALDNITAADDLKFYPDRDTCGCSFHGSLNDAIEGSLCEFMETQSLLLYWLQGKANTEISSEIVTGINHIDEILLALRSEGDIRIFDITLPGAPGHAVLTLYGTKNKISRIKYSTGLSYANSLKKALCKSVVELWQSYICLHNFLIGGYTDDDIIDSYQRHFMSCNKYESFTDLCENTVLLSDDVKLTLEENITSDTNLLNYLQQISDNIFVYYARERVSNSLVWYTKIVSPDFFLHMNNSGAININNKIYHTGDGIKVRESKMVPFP

Row | pKd [1] | Substance | pKd [2]
1 | 5.77 | Balh cyclodehydratase (BalhC/D) from Bacillus sp. Al Hakam (complex) | 
2 |  | McbC (from UniProt P23185) | 5.74
